Assay results: PMC6309729
Read-outs that look alike come from different tables or passages of the source.

Tests used:
Experiment in all cases: other fluorescence titration
[1] = molecular target: cpSRP54(234C)-acrylodan (Arabidopsis thaliana) (UniProt P37107)
[2] = molecular target: acrylodan-labeled cpSRP54(234C, A142W) (Arabidopsis thaliana)
[3] = molecular target: cpSRP54(234C)-acrylodan (Arabidopsis thaliana) (UniProt P37107); remark: listed apart in the source

B1: cpFtsY (chloroplast SRP receptor), wildtype (natural protein)
chain: CSAGPSGFFTRLGRLIKEKAKSDVEKVFSGFSKTRENLAVIDELLLFWNLAETDRVLDELEEALLVSDFGPKITVRIVERLREDIMSGKLKSGSEIKDALKESVLEMLAKKNSKTELQLGFRKPAVIMIVGVNGGGKTTSLGKLAHRLKNEGTKVLMAAGDTFRAAASDQLEIWAERTGCEIVVAEGDKAKAATVLSKAVKRGKEEGYDVVLCDTSGRLHTNYSLMEELIACKKAVGKIVSGAPNEILLVLDGNTGLNMLPQAREFNEVVGITGLILTKLDGSARGGCVVSVVEELGIPVKFIGVGEAVEDLQPFDPEAFVNAIFS
In the case of B1, the kon [1] is reported as 157000 M⁻¹ s⁻¹, the apparent dissociation rate constant (before subtracting GTP hydrolysis) [2] is reported as 0.038 s⁻¹ and the koff [2] is reported as 0.03 s⁻¹. It also gave a kon [2] of 190000 M⁻¹ s⁻¹ and a kon [3] of 230000 M⁻¹ s⁻¹.
